The target of experiment [1] is T1, Bfl-1, Q16548.
T1 chain: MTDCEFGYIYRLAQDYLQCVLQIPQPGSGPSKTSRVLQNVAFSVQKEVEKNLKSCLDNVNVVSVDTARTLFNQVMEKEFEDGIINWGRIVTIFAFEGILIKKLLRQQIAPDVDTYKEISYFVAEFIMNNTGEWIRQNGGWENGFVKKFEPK
The experiment in a line: peptide SPOT array, c-Myc-tagged receptor at 1 uM or 100 nM, anti-c-Myc-Cy3.

Experiment [2] has as its target T2, Mcl-1, Q07820.
T2 chain: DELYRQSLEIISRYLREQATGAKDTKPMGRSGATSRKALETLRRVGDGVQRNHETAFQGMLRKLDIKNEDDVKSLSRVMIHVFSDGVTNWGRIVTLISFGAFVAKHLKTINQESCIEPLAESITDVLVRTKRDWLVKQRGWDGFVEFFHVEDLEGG
The experiment is described as above.

The target of experiment [3] is Bcl-xL, Q07817. The experiment is described as above.
The target of experiment [4] is T1, Bfl-1, Q16548. Kind of experiment: fluorescence polarisation, direct titration of receptor into 10 nM labelled peptide.
A further experiment concerns the target T3, Bcl-w, Q92843.
T3 chain: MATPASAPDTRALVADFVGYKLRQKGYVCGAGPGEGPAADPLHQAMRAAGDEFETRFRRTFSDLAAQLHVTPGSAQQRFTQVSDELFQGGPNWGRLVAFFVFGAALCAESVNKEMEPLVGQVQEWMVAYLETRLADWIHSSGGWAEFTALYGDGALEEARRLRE
Described as above.

A further experiment deals with T4, Bcl-2, P10415.
T4 chain: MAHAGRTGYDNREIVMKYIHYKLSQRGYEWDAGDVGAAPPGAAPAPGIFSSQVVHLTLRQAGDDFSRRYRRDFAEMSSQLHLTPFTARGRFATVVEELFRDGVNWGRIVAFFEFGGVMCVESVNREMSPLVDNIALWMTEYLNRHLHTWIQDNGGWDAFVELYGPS
Described as above.

For experiment [5], the target named is T2, Mcl-1, Q07820. Described as above.
The target in experiment [6] is Bcl-xL, Q07817. Described as above.

A value given as a limit tells only on which side of the number the result lay.

Sequence of Bcl-xL, Q07817 (Q07817 1-209): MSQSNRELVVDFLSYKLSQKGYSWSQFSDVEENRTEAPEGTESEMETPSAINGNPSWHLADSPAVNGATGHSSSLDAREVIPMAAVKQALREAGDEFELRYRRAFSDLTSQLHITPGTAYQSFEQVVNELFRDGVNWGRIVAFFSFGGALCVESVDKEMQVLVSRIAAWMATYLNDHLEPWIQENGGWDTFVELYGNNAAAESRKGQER

The Kd is the free concentration of one partner at which half of the binding sites on the other are occupied at equilibrium, for simple one-to-one binding. Low values mean a tighter complex, high ones a looser complex. With VDSIRPKCQELRHLCDQFSAEIARRR [MCF2L], the SPOT signal as a fraction of Bim BH3's signal on the same receptor and array was 0.21 with Bfl-1, Q16548 [1]; 0.24 with Mcl-1, Q07820 [2]; 1.26 with Bcl-xL, Q07817 [3]. The Kd is above 4100 nM with Bfl-1, Q16548 [4]; 7 nM with Bcl-w, Q92843; 6 nM with Bcl-2, P10415; above 4000 nM in the experiment with Mcl-1, Q07820 [5]; 4 nM in the experiment with Bcl-xL, Q07817 [6].

For the molecule RVCPYYLSRNLKQQADIIFMPYNYLL [RTEL1], the SPOT signal as a fraction of Bim BH3's signal on the same receptor and array stood at 0.72 with Bfl-1, Q16548 [1]; 1.42 in the experiment with Mcl-1, Q07820 [2]; 2.13 in the experiment with Bcl-xL, Q07817 [3]. Besides, the Kd was above 4000 nM with Bfl-1, Q16548 [4]; above 100000 nM with Bcl-w, Q92843; 342 nM in the experiment with Bcl-2, P10415; above 4000 nM in the experiment with Mcl-1, Q07820 [5]; 1380 nM in the experiment with Bcl-xL, Q07817 [6].

As to AIILCNVCGNLCTDCDRFLHLHRRTK [MYCBP2], the SPOT signal as a fraction of Bim BH3's signal on the same receptor and array turned out to be 0.54 with Bfl-1, Q16548 [1]; 0.29 in the experiment with Mcl-1, Q07820 [2]; 0.8 in the experiment with Bcl-xL, Q07817 [3]. The Kd with Bfl-1, Q16548 [4] was above 3370 nM; with Bcl-w, Q92843 it was 4060 nM; with Bcl-2, P10415, 1180 nM; in the experiment with Mcl-1, Q07820 [5], above 10000 nM; with Bcl-xL, Q07817 [6], above 10000 nM.

Regarding FSKREKLVEILRNIGDERTMVFVETK [DDX4], the SPOT signal as a fraction of Bim BH3's signal on the same receptor and array amounted to 0.1 with Bfl-1, Q16548 [1]; 0.35 with Mcl-1, Q07820 [2]; 0.14 with Bcl-xL, Q07817 [3]. The Kd with Bfl-1, Q16548 [4] is above 3370 nM; with Bcl-w, Q92843, above 4350 nM; with Bcl-2, P10415, above 3040 nM; with Mcl-1, Q07820 [5], 142 nM; with Bcl-xL, Q07817 [6], above 4000 nM.

As for FKAWGKFGGAFCRYADEMKEIQERQR [PURB], the SPOT signal as a fraction of Bim BH3's signal on the same receptor and array in the experiment with Bfl-1, Q16548 [1] amounted to 1.05; in the experiment with Mcl-1, Q07820 [2], 1.16; with Bcl-xL, Q07817 [3], 1.83. Besides, the Kd was above 4660 nM with Bfl-1, Q16548 [4]; above 1800 nM in the experiment with Bcl-w, Q92843; 34 nM with Bcl-2, P10415; above 4000 nM in the experiment with Mcl-1, Q07820 [5]; above 100000 nM with Bcl-xL, Q07817 [6].

SKFVILSAHKLVFIGDTLSRQAKAAD [BCAR1]: the SPOT signal as a fraction of Bim BH3's signal on the same receptor and array stood at 0.06 in the experiment with Mcl-1, Q07820 [2] and 0.1 with Bcl-xL, Q07817 [3]. For the same molecule, the Kd with Bfl-1, Q16548 [4] worked out at 4680 nM; in the experiment with Bcl-w, Q92843 it was 3610 nM; in the experiment with Bcl-2, P10415, 2990 nM; in the experiment with Mcl-1, Q07820 [5] it was 912 nM; in the experiment with Bcl-xL, Q07817 [6], 2540 nM.

As to ADAIRPRCVELRHLCDDFINGNKKKW [MCF2L2], the SPOT signal as a fraction of Bim BH3's signal on the same receptor and array came out at 0.29 in the experiment with Bfl-1, Q16548 [1]; 0.22 with Mcl-1, Q07820 [2]; 1.38 with Bcl-xL, Q07817 [3]. The Kd was above 3370 nM in the experiment with Bfl-1, Q16548 [4]; 1120 nM with Bcl-w, Q92843; 60 nM with Bcl-2, P10415; above 4000 nM in the experiment with Mcl-1, Q07820 [5]; 292 nM with Bcl-xL, Q07817 [6].

Consider TRRSMVFARHLREVGDEFRSRHLNST [POFUT2], for which the SPOT signal as a fraction of Bim BH3's signal on the same receptor and array with Bfl-1, Q16548 [1] turned out to be 0.75; in the experiment with Mcl-1, Q07820 [2], 1.67; with Bcl-xL, Q07817 [3] it was 1.91. Moreover, the Kd with Bfl-1, Q16548 [4] is above 2280 nM; with Bcl-w, Q92843 it was 98 nM; with Bcl-2, P10415, 98 nM; with Mcl-1, Q07820 [5], above 10000 nM; with Bcl-xL, Q07817 [6], 39 nM.

As to TVATRRLSGFLRTLADRLEGTKELLS [MINA], the SPOT signal as a fraction of Bim BH3's signal on the same receptor and array with Bfl-1, Q16548 [1] was determined as 0.32; with Mcl-1, Q07820 [2] it was 0.36; with Bcl-xL, Q07817 [3], 0.91. The Kd is 1130 nM with Bfl-1, Q16548 [4]; 1230 nM with Bcl-w, Q92843; 266 nM with Bcl-2, P10415; above 10000 nM in the experiment with Mcl-1, Q07820 [5]; 1010 nM with Bcl-xL, Q07817 [6].

Consider QRKHEGFERDLAALGDKVNSLGETAE [SPTAN1], for which the SPOT signal as a fraction of Bim BH3's signal on the same receptor and array with Bfl-1, Q16548 [1] was determined as 0.13; with Mcl-1, Q07820 [2], 0.27; in the experiment with Bcl-xL, Q07817 [3], 0.12. The Kd in the experiment with Bfl-1, Q16548 [4] is above 3370 nM; with Bcl-w, Q92843 it was above 4350 nM; with Bcl-2, P10415 it was above 3040 nM; with Mcl-1, Q07820 [5], 3850 nM; in the experiment with Bcl-xL, Q07817 [6], above 7000 nM.

On to FVGYNSTGAELRHWSDMLANPRRPIA [SYT1], for which the SPOT signal as a fraction of Bim BH3's signal on the same receptor and array in the experiment with Bfl-1, Q16548 [1] stood at 0.37; in the experiment with Mcl-1, Q07820 [2], 0.32; with Bcl-xL, Q07817 [3], 1.41. Also, the Kd with Bfl-1, Q16548 [4] is above 3370 nM; with Bcl-w, Q92843 it was above 4350 nM; with Bcl-2, P10415, above 100000 nM; with Mcl-1, Q07820 [5], above 4000 nM; with Bcl-xL, Q07817 [6], above 6900 nM.

For ACGDSVLARMLRELGDSLRRPQLRLW [SLC19A1], the SPOT signal as a fraction of Bim BH3's signal on the same receptor and array with Bfl-1, Q16548 [1] was 0.38; with Mcl-1, Q07820 [2], 0.45; in the experiment with Bcl-xL, Q07817 [3], 1.21. Moreover, the Kd worked out at 182 nM with Bfl-1, Q16548 [4]; 237 nM with Bcl-2, P10415; 22 nM with Mcl-1, Q07820 [5]; 1460 nM with Bcl-xL, Q07817 [6].

For ISSYMVLAPVFGYLGDRYNRKYLMCG [SPNS1], the SPOT signal as a fraction of Bim BH3's signal on the same receptor and array with Bfl-1, Q16548 [1] came out at 1.2; with Mcl-1, Q07820 [2], 1.15; with Bcl-xL, Q07817 [3], 1.64. The Kd amounted to 278 nM in the experiment with Bfl-1, Q16548 [4]; 871 nM with Bcl-w, Q92843; 28 nM with Bcl-2, P10415; 19 nM in the experiment with Mcl-1, Q07820 [5]; 96 nM in the experiment with Bcl-xL, Q07817 [6].

For PAKKMTLSEIYRWICDNFPYYKNAGI [FOXJ2], the SPOT signal as a fraction of Bim BH3's signal on the same receptor and array with Bfl-1, Q16548 [1] amounted to 0.54; in the experiment with Mcl-1, Q07820 [2], 0.47; with Bcl-xL, Q07817 [3] it was 2.03. The Kd in the experiment with Bfl-1, Q16548 [4] is above 3370 nM; in the experiment with Bcl-w, Q92843 it was 85 nM; with Bcl-2, P10415, 130 nM; with Mcl-1, Q07820 [5], above 10000 nM; in the experiment with Bcl-xL, Q07817 [6], 103 nM.
